Target: trimeric HA protein of A/Victoria/361/2011 (H3N2) (Influenza A virus A/Victoria/361/2011 …, UniProt A0A097PF39, strain)
Assay: negative-stain electron microscopy

B1: IgM-F045-092 (antibody, V domains shown)
VH: EVQLVESGAEVKKPGSSVKVSCRASGTFYKYAINWVRQAPGQGLEWMGGIIPFFGTTNYAQKFQGRLTITADGSTNTAYMQLDSLRSEDTAVYYCAGPSITESHYCLDCAAKDYYYGLDVWGQGTTVTVSS
VL: not shown
  binding result: binds

— article PMC12041195 (Nature Communications, 2025)
